# Measurements: patent US20260116991A1 (HAINAN SIMCERE ZAIMING PHARMACEUTICAL, published 2026)
# Key:
# [1] = target: T1, human GPC3 on CHO-K1-human GPC3 cells (CHOK1-hGPC3.2B5) (human, UniProt P51654 25-554); assay: FACS, CHOK1-hGPC3.2B5 cells;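 further: flow cytometry of humanized antibodies binding to the cells over one hour in the cold, read as cell mean fluorescence intensity, with EC50 obtained by curve fitting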
# T1 construct: whole, on cells
# Protocol: The desired cells were expanded to a logarithmic growth phase in a T-75 cell culture flask, the medium was removed by pipetting, and the cells were washed twice with a PBS buffer, and digested with trypsin. Then a complete medium was added to stop the digestion, and the cells were blown into a single cell suspension. After counting, the cells were centrifuged, and the cell pellet was resuspended with an FACS buffer (PBS+2% fetal bovine serum) to 2×10⁶ cells/mL. The cell resuspension solution was added to a 96-well FACS reaction plate at 50 μl/well, and a humanized antibody sample to be tested was added at 50 μl/well for incubation at 4° C. for 1 h. […] After the plate was centrifuged and washed 3 times with a PBS buffer, 100 μl of the resulting solution was assayed and analyzed by FACS (FACS Canto™, purchased from BD Biosciences). Data analysis was performed by software (FlowJo) to obtain the mean fluorescence intensity (MFI) of the cells. Then, analysis was performed by software (GraphPad Prism8), data were fitted, and EC₅₀ values were calculated.
# [2] = target: biotinylated labeled human GPC3 protein (produced in-house) (human, UniProt P51654 25-559, limits assumed, biotinylated (Dojindo, Cat. No. LK03); sites not stated); assay: ELISA, biotinylated human GPC3 protein
EC50 [1] [nM],Max MFI [1] [MFI],OD450 at 0.0008 nM [2] [OD450],OD450 at 0.004 nM [2] [OD450],OD450 at 0.02 nM [2] [OD450],OD450 at 0.11 nM [2] [OD450],OD450 at 0.53 nM [2] [OD450],OD450 at 2.67 nM [2] [OD450],OD450 at 13.33 nM [2] [OD450],OD450 at 66.66 nM [2] [OD450],Binder
6.17,2550,0.096,0.141,0.437,1.53,2.27,2.42,2.57,2.58,"hAb001H2L1a (antibody, human IgG1, V domains shown, Humanized F2.169.2; VH H2 + VL L1a; expressed as human IgG1) VH: EVQLVESGGGLVQPGGSLRLSCAASGFSFNTNAMNWVRQAPGKGLEWVGRIRSKSNNYATYYADSVKDRFTISRDDSKSSLYLQMNSLKTEDTAVYYCVRDGYYVLFAYWGQGTLVTVSS VL: DIVMTQTPLSLPVTPGEPASISCRFSQSIVNSDGNTYLEWFLQKPGQSPQLLIYKVSNRFSGVPDRFSGSGSGTDFTLKISRVEAEDVGVYYCFQGSHVPFTFGQGTKLEIK"
6.56,6190,0.121,0.233,0.654,1.72,2.26,2.26,2.33,2.32,"hAb007LH2L1 (antibody, human IgG1, V domains shown, Humanized F3.81.19; VH H2 + VL L1; expressed as human IgG1) VH: EVQLVQSGAEVKKPGSSVKVSCKASGYTFTDYEMHWVRQAPGQGLEWMGTIDPETGNTAYNQKFKGRVTITADKSTSTAYMELSSLRSEDTAVYYCTRPYSLTYWGQGTLVTVSS VL: DIVMTQTPLSLPVTPGEPASISCRSSQSFVHSNGDTYLQWYLQKPGQSPQLLIYKVSNRFSGVPDRFSGSGSGTDFTLKISRVEAEDVGVYYCFQGSHVPYTFGQGTKLEIK"
0.455,3370,0.154,0.287,0.787,1.94,2.46,2.52,2.53,2.67,"hAb001H2L1b (antibody, human IgG1, V domains shown, Humanized F2.169.2; VH H2 + VL L1b; expressed as human IgG1) VH: EVQLVESGGGLVQPGGSLRLSCAASGFSFNTNAMNWVRQAPGKGLEWVGRIRSKSNNYATYYADSVKDRFTISRDDSKSSLYLQMNSLKTEDTAVYYCVRDGYYVLFAYWGQGTLVTVSS VL: DIVMTQTPLSLPVTPGEPASISCRFSQSIVNSNANTYLEWFLQKPGQSPQLLIYKVSNRFSGVPDRFSGSGSGTDFTLKISRVEAEDVGVYYCFQGSHVPFTFGQGTKLEIK"
45.1,2070,0.082,0.115,0.334,1.12,1.97,2.27,2.21,2.45,"hAb003LH1L1a (antibody, human IgG1, V domains shown, Humanized F2.154.1; VH H1 + VL L1a; expressed as human IgG1) VH: EVQLVQSGAEVKKPGSSVKVSCKASGYTFSDYEMHWVRQAPGQGLEWMGTIDPETGNTAYTQKFMDRVTITADKSTSTAYMELSSLRSEDTAVYYCTRGYSFTYWGQGTLVTVSS VL: DIVMTQTPLSLPVTPGEPASISCRSSQNIVHSDGNTYLQWYLQKPGQSPQLLIFKVSNRFSGVPDRFSGSGSGTDFTLKISRVEAEDVGVYYCFQGSHVPFTFGQGTKLEIK"
1.42,5220,0.16,0.427,1.19,2.15,2.5,2.47,2.57,2.49,"hAb003LH1L1 (antibody, human IgG1, V domains shown, Humanized F2.154.1; VH H1 + VL L1; expressed as human IgG1) VH: EVQLVQSGAEVKKPGSSVKVSCKASGYTFSDYEMHWVRQAPGQGLEWMGTIDPETGNTAYTQKFMDRVTITADKSTSTAYMELSSLRSEDTAVYYCTRGYSFTYWGQGTLVTVSS VL: DIVMTQTPLSLPVTPGEPASISCRSSQNIVHSNGNTYLQWYLQKPGQSPQLLIFKVSNRFSGVPDRFSGSGSGTDFTLKISRVEAEDVGVYYCFQGSHVPFTFGQGTKLEIK"
